# Target: GST-Gag (HIV-1 Gag fused to GST, from pGEX-6P-3/Gag) (HIV-1)
# Experiment: SPR
substance,measurement,value
FLAG-TSG101 (Tumor Susceptibility Gene 101) (from UniProt Q99816 1-390) (natural protein),Kd,55.2 nM
same,koff,0.0223 s⁻¹
same,kon,924000 M⁻¹ s⁻¹
